The results in this text go back to the DeepSol protein solubility set.

This series is described as follows: soluble on expression in E. coli; label from the status in PepcDB or PDB records.
For the sequence “MSVSLVVIRLELAEHSPVPAGFGFSAAAGEMSDEEIKKTTLASAVACLEGKSPGEKVAIIHQHLGRREMTDVIIETMKSNPDELKTTVEERKSSEASPTAQRSKDHSKECINAAPDSPSKQLPDQISFFSGNPSVEIVHGIMHLYKTNKMTSLKEDVRRSAMLCILTVPAAMTSHDLMKFVAPFNEVIEQMKIIRDSTPNQYMVLIKFRAQADADSFYMTCNGRQFNSIEDDVCQLVYVERAEVLKSEDGASLPVMDLTELPKCTVCLERMDESVNGILTTLCNHSFHSQCLQRWDDTTCPVCRYCQTPEPVEENKCFECGVQENLWICLICGHIGCGRYVSRHAYKHFEETQHTYAMQLTNHRVWDYAGDNYVHRLVASKTDGKIVQYECEGDTCQEEKIDALQLEYSYLLTSQLESQRIYWENKIVRIEKDTAEEINNMKTKFKETIEKCDNLEHKLNDLLKEKQSVERKCTQLNTKVAKLTNELKEEQEMNKCLRANQVLLQNKLKEEERVLKETCDQKDLQITEIQEQLRDVMFYLETQQKINHLPAETRQEIQEGQINIAMASASSPASSGGSGKLPSRKGRSKRGK”, the “soluble on expression in E. coli” value was “soluble”.
In the case of “MGSDKIHHHHHHMRHFIYQDEKSHKFRAVEQQGNELHISWGKVGTKGQSQIKSFSDAAAAAKAELKLIAEKVKKGYVEQAKDNSLQPSQTVTGSLKVADLSTIIQEQPSFVAETRAPDKNTDAVLPWLAKDIAVVFPPEVVHTTLSHRRFPGVPVQQADKLPQLRRLACSVSQRDNKTATFDFSACSLEWQNTVAQAISQIDGLKTTQLPSPVMAVLTALEMKCTRYKVREDVMDQIVQEGGLEYATDVIIHLQQIDIEWDYANNVIIILPSGIAPSYLEQYSRFE” it was “not soluble”; in that of “MLIDMILAFSVAPTETPNNKAEMADVVAEAIRVVRESGLPNETNAMFTLIEGEWDEVMAVVKKATDAVLAVSPRASLVIKADIRPGYTGQLQQKVASVERVLAGDSES”, “not soluble”.
On to “MQMISRITTGISMQYGLSNGTITFDDLIPELLHFGTITPTQISAITTDKLTEIVDGINGLQRKLDSSSEQLEEQLMMFASVYEKTKGVVPGSIIPKDDVYKTQLDALKIKWSKVDSFAKGIVIFLNEMESMEGVTSDDDANIKLSDMAPHLPKFKDWTLEEYNVYAQNQHLRNIHISYPSLNLVYKAVAEFFPYKNSLDGSLLPQVQENINKLNTLAEKIKPEAPMISQLHELFLSRSLKKSVNFKIISGLLNGISDIQMIFTDLKNEWVNKTVDGQAYNLGKALNQLKTLGNNAQQVDLSIVPVEEKIFKDVSNLYQKVNSLKDLTVIVRPLIGTVTGIEIPQSAIRIPAIDVIGQLIDKMKLLSSKLAALEILVHLSKTLRSAKNTIKLEKMKNITTAAEGKLELFKKSSDFKDIYKLILPAKKAAQKLKEAPTITETVTKIQTSFGNLTTFVDDLKSFLDDIKFLENIKGIDSLKPVIEVIRDYRDPKLFKKVDLSTLIGHLPKLKSTLKVLGDYIKGIKTSKHMETEALSTFTNISVGSQVVGMATRGITNMQMMSSQTVDLKIVKELKAVIDEEMKKHQLNPSDVKNLNSLDGLEDELNRIKTAISDFKKSVKPVKSFKLSNYSGFFQDAKKVPGIKINLPAIIGSVEKLKDRLSTRRRRSASASQLDTLLSLLRSLQIYDSAKFSKAFDDSAKSLQALDTSFTAYSKATSKLQGQKGSQSPRSPGSSPTKELSFLENDGEEFKITHHQVLDWNGLNALEDHRGAGLAAMFLMKYETTAIVHCVDGVSRSAVLAGMIIGFQKIIETRGDMNVADLIDDLRKQRAMAITSGLELAFVDAGIFLLFKRMMNNFEEEYPEDLKQMLKDAVQYYKLIAGYQVQQRDNYFKKLDNMGKKQMNQKKSTEEGVDKSKEQGKDATVMKEKSPLAKVN”, for which the “soluble on expression in E. coli” value is “not soluble”.
In the case of “MARFNAAFTRIKIMFSRIRGLISCQSNTQTIAPTLSPPSSGHVSFAGIDYPLLPLNHQTPLVFQWFERNPDRFGQNEIPIINTQKNPYLNNIINAAIIEKERIIGIFVDGDFSKGQRKALGKLEQNYRNIKVIYNSDLNYSMYDKKLTTIYLENITKLEAQSASERDEVLLNGVKKSLEDVLKNNPEETLISSHNKDKGHLWFDFYRNLFLLKGSDAFLEAGKPGCHHLQPGGGCIYLDADMLLTDKLGTLYLPDGIAIHVSRKDNHVSLENGIIAVNRSEHPALIKGLEIMHSKPYGDPYNDWLSKGLRHYFDGSHIQDYDAFCDFIEFKHENIIMNTSSLTASSWR” it was “not soluble”.
In the case of “MMLRTEEMILNVGPQHPSTHGVFRLILKIDGEIIQEATPVIGYLHRGTEKIAEGLQYTQIIPYTDRMDYLSAMTNNYVLCHAVETMMGIEVPERAEYLRVLAMELGRIASHLVWWGTYLLDLGATSPFLYAFREREMIINLLNELSGARLTFNYMRIGGVKWDAPDGWIDKVKQFVPYMREKLHGYHELVTGNEIFRQRVTGVGRYTKEEAISYSLSGVNLRSTGVKWDLRKDEPYSIYDRFDFDVPVRDSGDCLARYECRMAEIEQSLCIIEQACEQFPPEGPIMGKVPRIIKAPPGETFVRIEAPRGEIGCYIASDGKKEPYRLKFRRPSFYNLQILPKLLKGENLANVIAILGSIDIVLGEVDG” it was “not soluble”.
In the case of “MGSDKIHHHHHHMIVRHKLLADLVRLWKNDQLVEKIDRLPIELSPRKSKPLGRCCVHKERAVWRYKTFPLMGLDMTDEHDEVTPLSEYARMALNRPEPSKENIMCVIDEACSSCVQINYEITNLCRGCVARSCYMNCPKDAIRFKKNGQAMIDHDTCVSCGICHKSCPYHAIVYIPVPCEESCPVKAISKDEHGVEHIDESKCIYCGKCMNACPFGAIFEISQTFDVLQHIKKGEKLVAIIAPSILGQFKTSIEQVYGAFKEIGFTDIIEVAEGAMMTTSNEAHELLEKLEEGQKFMTTSCCPSYIELVEKHMTEMKPYVSTTGSPMYYAARIAKEKHPDAKIVFVGPCVAKRKEVRRDDAVDYILTFEEVGSILDGMDIQLEQVNSFSILHTSVREAHGFAQAGGVMGAVKAYLKEEADKINAIQVSDINKKNIALLRACAKTGKAAGQFIEVMACEGGCITGPSTHNDIVSGRRQLAQELLKRKESYETMDR” it was “not soluble”; in that of “MGSDKIHHHHHHMRNIVKRFGSLVANDHINFEVKRGEIHGLLGENGAGKTTLMNILYGIYQPDEGEIIFEGKKVRFKSPKDAISAGIGMVHQHFMLVPRMNVLQNIVLGYRTPSDPLINHRWVEERIERLSEKYGIDVALYEVIMNLSVGEEQRVEILKALFRDVKLLILDEPTAVLTPQEVDSLFYALKSMTKSGLTIIFITHKLKEALKVTDRITVLRRGRKVGTVITSETNERELTRMMVGRDIVLDITKPPSTPGREVLRVEDLWVRDERGNYAVKGVSFSIREGEIFGIAGVSGNGQKELEEAIAGLRKVERGRIILDGKDITAKGVAEREDIAYIPEDRIGVGLAPSLSVLENLMLKDFKKYKKRFSLNFEEMEKRAMSLVEEFSVKTPSLHSPAGTLSGGNIQRLILARELSRNPRLIIASQPTRGLDVAGIDYVRRRLIEAAMRGSAVLLISEDLDEIFQLSDRIGVMYEGEIRGIVDRKNANYEKIGYLMAGGLEVAA”, “not soluble”.
As to “MGSDKIHHHHHHENLYFQGMSVAHENARRIISDILGKQNIERVWFVGCGGSLTGFWPGKYFLDCEASKLAVGYITSNEFVHATPKALGKNSVVILASQQGNTAETVAAARVAREKGAATIGLVYQPDTPLCEYSDYIIEYQWARYPETVDPAQQKAAYSLWLALEILAQTEGYAQYDELVSAFGRFSDVVHGAQRQVQEDAQRFAAEWKDEKVVYMMGSGPSFGAAHQESICILLEMQWINSASIHSGEYFHGPFEITEPGTPFILLQSSGRTRPLDDRAIRFIERYQGKLQLIDADKLGIQDLSTDVGEYFCGLLHNCVLDVYNLALATARNHPLTTRRYMWKVEY”, the “soluble on expression in E. coli” value is reported as “soluble”.
In the case of “MGSDKIHHHHHHMALLEVTDLSQSFADRKLYDDANFTLERADHMGIVGQNGAGKSTLIKILTGQILPLSGQIKWQRNVRTGYLDQYADIPAGMTLYAFLKTAFQRLYDLDAQMQQLYADYAEKMDDQLLERAGRIQETLEANNFYDVETEMERVITGLGLDEIGRDHVISEMSGGQRSKIILAKLLLENPDVIILDEPTNYLDTAHISWLEDYLNGFEGAVMVISHDYDFLQQVTNCICDVAFGKIIKYRGDFKAAMRQKEARKEAQLKAFEKQQVVIEKAEKFIRKNKAGSKSTMAKSREKMLSHLDRVDPPSENEHAKFAFPYLDTGSQNALSVTKLSVGYGKPLLEPVTFTMTNGEKLAFKGFNGVGKSTLIKSILGVIPALSGKSDFSPSAKINYFNQDLEWDNPQLTPLQTIQNEYPTMLPKTIRTKLAKCGINAANAMKPMHLLSGGEQTKVKLALLELVPSNFLIMDEPTNHLDDETKEGLKRALQAFQGNLILVSHESSFVNGWVDKELNVEKLSLKERQG” it was “not soluble”.
